Data published in PMC9482650, “Quantitative fragmentomics allow affinity mapping of interactomes” (Nature Communications, 2022).
One block for each binder: values may come before it.

Legend:
Test in all cases: holdup assay
Parameters in all cases: key: below the threshold = too weak to quantify, mostly under pKd 3.1 to 4
[1] = molecular target: T1, DLG3_1, Q92796
T1 sequence (Q92796 125-227, limits assumed, looked up): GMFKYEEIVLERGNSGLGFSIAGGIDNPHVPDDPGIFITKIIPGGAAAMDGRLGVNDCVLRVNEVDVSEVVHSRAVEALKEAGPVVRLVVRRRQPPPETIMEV

[2] = molecular target: T2, DLG3_2, Q92796
T2 sequence (Q92796 221-321, limits assumed, looked up): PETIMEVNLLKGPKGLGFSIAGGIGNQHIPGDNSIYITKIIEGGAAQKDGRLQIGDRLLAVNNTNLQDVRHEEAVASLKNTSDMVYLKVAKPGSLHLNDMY

[3] = molecular target: DLG4_1, P78352
[4] = molecular target: FRMPD2_2, Q68DX3
[5] = molecular target: FRMPD2_3, Q68DX3
[6] = molecular target: T3, GRIP1_2, Q9Y3R0
T3 sequence (Q9Y3R0 145-248, limits assumed, looked up): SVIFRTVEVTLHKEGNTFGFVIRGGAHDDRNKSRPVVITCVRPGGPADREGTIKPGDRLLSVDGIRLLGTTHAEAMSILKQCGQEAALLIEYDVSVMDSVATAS

[7] = molecular target: T4, GRIP1_7, Q9Y3R0
T4 sequence (Q9Y3R0 999-1096, limits assumed, looked up): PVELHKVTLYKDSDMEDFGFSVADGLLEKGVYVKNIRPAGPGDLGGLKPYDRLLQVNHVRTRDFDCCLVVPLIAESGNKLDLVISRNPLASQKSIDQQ

[8] = molecular target: Inadl_4, Q8NI35
[9] = molecular target: Inadl_5, Q8NI35
[10] = molecular target: T5, LIN7A, O14910
T5 sequence (O14910 103-200, limits assumed, looked up): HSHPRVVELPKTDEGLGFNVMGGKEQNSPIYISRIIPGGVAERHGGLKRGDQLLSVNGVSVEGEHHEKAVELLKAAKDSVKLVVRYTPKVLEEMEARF

[11] = molecular target: LNX1_3, Q8TBB1
[12] = molecular target: T6, LRRC7, Q96NW7
T6 sequence (Q96NW7 1440-1537, limits assumed, looked up): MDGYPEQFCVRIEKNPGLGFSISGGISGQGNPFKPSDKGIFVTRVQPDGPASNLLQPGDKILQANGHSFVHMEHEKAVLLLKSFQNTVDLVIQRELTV

[13] = molecular target: MAGI1_1, Q96QZ7
[14] = molecular target: MAGI1_2, Q96QZ7
[15] = molecular target: MAGI2_4, Q86UL8
[16] = molecular target: MAGI2_6, Q86UL8
[17] = molecular target: MAGI3_2, Q5TCQ9
[18] = molecular target: MAST1, Q9Y2H9
[19] = molecular target: T7, MPDZ_10, O75970
T7 sequence (O75970 1624-1722, limits assumed, looked up): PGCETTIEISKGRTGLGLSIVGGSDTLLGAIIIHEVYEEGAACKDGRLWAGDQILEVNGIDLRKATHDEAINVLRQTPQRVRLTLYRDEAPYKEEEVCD

[20] = molecular target: T8, MPP2, Q14168
T8 sequence (Q14168 180-250, limits assumed, looked up): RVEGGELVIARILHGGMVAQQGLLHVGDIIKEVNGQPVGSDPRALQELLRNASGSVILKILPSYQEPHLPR

[21] = molecular target: NHERF4_4, Q86UT5
[22] = molecular target: PDLIM1, O00151
[23] = molecular target: T9, RADIL, Q96JH8
T9 sequence (Q96JH8 971-1071, limits assumed, looked up): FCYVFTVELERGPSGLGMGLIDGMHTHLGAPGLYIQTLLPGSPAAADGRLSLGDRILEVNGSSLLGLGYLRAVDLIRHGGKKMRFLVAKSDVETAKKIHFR

[24] = molecular target: SCRIB_3, Q14160
[25] = molecular target: T10, SIPA1L2, Q9P2F8
T10 sequence (Q9P2F8 945-1036, limits assumed, looked up): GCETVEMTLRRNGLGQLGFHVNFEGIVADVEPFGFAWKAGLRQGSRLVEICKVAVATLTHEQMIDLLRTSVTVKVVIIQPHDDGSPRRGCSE

[26] = molecular target: TJP1_2, Q07157
[27] = molecular target: TJP2_1, Q9UDY2
[28] = plain residues with an end cap or a label only (N-terminal biotin on a linker: ahx)
[29] = plain residues with an end cap or a label only (N-terminal biotin on a linker: ttds)

Sequence of MAGI3_2, Q5TCQ9 (Q5TCQ9 398-503): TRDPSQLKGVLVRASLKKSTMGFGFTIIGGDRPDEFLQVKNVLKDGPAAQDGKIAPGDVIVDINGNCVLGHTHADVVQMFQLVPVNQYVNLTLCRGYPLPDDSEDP
Sequence of MAGI1_2, Q96QZ7 (Q96QZ7 456-580): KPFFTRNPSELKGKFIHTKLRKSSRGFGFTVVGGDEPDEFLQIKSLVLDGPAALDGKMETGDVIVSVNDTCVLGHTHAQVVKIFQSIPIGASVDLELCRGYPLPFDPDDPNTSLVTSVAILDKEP
Sequence of MAGI2_6, Q86UL8 (Q86UL8 1141-1229): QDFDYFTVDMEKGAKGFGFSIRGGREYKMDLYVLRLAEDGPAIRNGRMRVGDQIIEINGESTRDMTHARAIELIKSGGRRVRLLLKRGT
Sequence of LNX1_3, Q8TBB1 (Q8TBB1 500-596): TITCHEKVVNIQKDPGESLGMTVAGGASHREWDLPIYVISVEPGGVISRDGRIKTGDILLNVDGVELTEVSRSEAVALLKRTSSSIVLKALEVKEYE
Sequence of MAGI1_1, Q96QZ7 (Q96QZ7 1-106): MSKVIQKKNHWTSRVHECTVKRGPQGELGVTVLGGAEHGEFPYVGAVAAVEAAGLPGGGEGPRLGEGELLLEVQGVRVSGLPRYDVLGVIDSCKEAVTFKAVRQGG
Sequence of MAST1, Q9Y2H9 (Q9Y2H9 962-1065): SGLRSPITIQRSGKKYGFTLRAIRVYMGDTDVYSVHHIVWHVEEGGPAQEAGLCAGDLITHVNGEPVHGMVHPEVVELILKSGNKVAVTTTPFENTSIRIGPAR
Sequence of FRMPD2_2, Q68DX3 (Q68DX3 944-1038): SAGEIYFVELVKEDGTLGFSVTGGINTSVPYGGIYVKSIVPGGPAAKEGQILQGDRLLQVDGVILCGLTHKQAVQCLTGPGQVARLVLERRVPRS
Sequence of FRMPD2_3, Q68DX3 (Q68DX3 1073-1166): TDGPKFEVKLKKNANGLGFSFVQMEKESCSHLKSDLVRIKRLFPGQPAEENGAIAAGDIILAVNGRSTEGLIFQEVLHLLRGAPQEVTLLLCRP
Sequence of SCRIB_3, Q14160 (Q14160 999-1103): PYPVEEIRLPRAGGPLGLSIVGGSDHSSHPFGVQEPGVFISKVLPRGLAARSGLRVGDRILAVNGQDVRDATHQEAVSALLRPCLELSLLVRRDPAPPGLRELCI
Sequence of NHERF4_4, Q86UT5 (Q86UT5 464-550): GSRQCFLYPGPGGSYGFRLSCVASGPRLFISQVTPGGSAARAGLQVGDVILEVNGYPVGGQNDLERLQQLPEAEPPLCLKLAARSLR
Sequence of Inadl_5, Q8NI35 (Q8NI35 673-780): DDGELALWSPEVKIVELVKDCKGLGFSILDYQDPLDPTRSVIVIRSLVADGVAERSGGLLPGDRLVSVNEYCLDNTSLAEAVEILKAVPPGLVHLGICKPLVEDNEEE
Sequence of DLG4_1, P78352 (P78352 62-152): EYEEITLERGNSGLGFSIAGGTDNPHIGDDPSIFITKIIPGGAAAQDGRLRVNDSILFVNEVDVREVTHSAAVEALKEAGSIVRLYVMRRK
Sequence of TJP2_1, Q9UDY2 (Q9UDY2 24-128): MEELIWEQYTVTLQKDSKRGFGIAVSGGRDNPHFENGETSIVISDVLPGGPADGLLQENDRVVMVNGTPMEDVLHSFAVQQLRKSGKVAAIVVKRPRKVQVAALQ
Sequence of PDLIM1, O00151 (O00151 1-87): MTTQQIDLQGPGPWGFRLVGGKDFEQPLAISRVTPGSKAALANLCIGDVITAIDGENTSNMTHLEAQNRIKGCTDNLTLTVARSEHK
Sequence of Inadl_4, Q8NI35 (Q8NI35 547-651): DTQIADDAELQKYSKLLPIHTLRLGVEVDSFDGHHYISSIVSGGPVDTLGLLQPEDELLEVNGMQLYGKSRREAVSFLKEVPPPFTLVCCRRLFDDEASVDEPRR
Sequence of MAGI2_4, Q86UL8 (Q86UL8 772-865): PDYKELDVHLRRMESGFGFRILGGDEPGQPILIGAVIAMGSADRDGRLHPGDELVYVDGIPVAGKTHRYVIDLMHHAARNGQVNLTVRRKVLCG
Sequence of TJP1_2, Q07157 (Q07157 181-274): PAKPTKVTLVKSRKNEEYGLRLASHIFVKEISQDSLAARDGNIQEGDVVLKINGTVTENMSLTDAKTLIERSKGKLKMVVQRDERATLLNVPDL

Binder: SHSSKGETAV [FZD7, O75084]
pKd [1, 29]: 4.01
pKd [2, 29]: 4.53
pKd [3, 29]: 4.4
pKd [4, 29]: 3.81
pKd [5, 29]: 3.46
pKd [6, 29]: below the threshold
pKd [7, 29]: below the threshold
pKd [8, 29]: below the threshold
pKd [9, 29]: below the threshold
pKd [10, 29]: below the threshold
pKd [11, 29]: below the threshold
pKd [12, 29]: below the threshold
pKd [13, 29]: below the threshold
pKd [14, 29]: 3.9
pKd [15, 29]: below the threshold
pKd [16, 29]: 4.43
pKd [17, 29]: 4.93
pKd [18, 29]: 4.77
pKd [19, 29]: below the threshold
pKd [20, 29]: below the threshold
pKd [21, 29]: below the threshold
pKd [22, 29]: below the threshold
pKd [23, 29]: below the threshold
pKd [24, 29]: 4.78
pKd [25, 29]: below the threshold
pKd [26, 29]: below the threshold
pKd [27, 29]: below the threshold

Binder: PFRSRSPSEV [GPR6, P46095]
pKd [1, 29]: below the threshold
pKd [2, 29]: below the threshold
pKd [3, 29]: below the threshold
pKd [4, 29]: below the threshold
pKd [5, 29]: below the threshold
pKd [6, 29]: 3.52
pKd [7, 29]: 3.63
pKd [8, 29]: below the threshold
pKd [9, 29]: 4.29
pKd [10, 29]: below the threshold
pKd [11, 29]: below the threshold
pKd [12, 29]: below the threshold
pKd [13, 29]: below the threshold
pKd [14, 29]: below the threshold
pKd [15, 29]: below the threshold
pKd [16, 29]: below the threshold
pKd [17, 29]: 4.16
pKd [18, 29]: below the threshold
pKd [19, 29]: below the threshold
pKd [20, 29]: below the threshold
pKd [21, 29]: below the threshold
pKd [22, 29]: below the threshold
pKd [23, 29]: below the threshold
pKd [24, 29]: 3.49
pKd [25, 29]: below the threshold
pKd [26, 29]: below the threshold
pKd [27, 29]: below the threshold

Other lines, results leading:

pKd [1, 28]: below the threshold
pKd [2, 28]: below the threshold
pKd [3, 28]: below the threshold
pKd [4, 28]: below the threshold
pKd [5, 28]: below the threshold
pKd [6, 28]: below the threshold
pKd [7, 28]: below the threshold
pKd [8, 28]: below the threshold
pKd [9, 28]: below the threshold
pKd [10, 28]: below the threshold
pKd [11, 28]: below the threshold
pKd [12, 28]: below the threshold
pKd [13, 28]: below the threshold
pKd [14, 28]: below the threshold
pKd [15, 28]: 3.69
pKd [16, 28]: 3.54
pKd [17, 28]: below the threshold
pKd [18, 28]: 4.32
pKd [19, 28]: below the threshold
pKd [20, 28]: below the threshold
pKd [21, 28]: below the threshold
pKd [22, 28]: 3.51
pKd [23, 28]: below the threshold
pKd [24, 28]: 4.49
pKd [25, 28]: below the threshold
pKd [26, 28]: below the threshold
pKd [27, 28]: below the threshold
Binder: PKMKLNETSF [SHKBP1, Q8TBC3]

pKd [1, 28]: below the threshold
pKd [2, 28]: 4.27
pKd [3, 28]: 3.84
pKd [4, 28]: 3.73
pKd [5, 28]: below the threshold
pKd [6, 28]: below the threshold
pKd [7, 28]: below the threshold
pKd [8, 28]: below the threshold
pKd [9, 28]: below the threshold
pKd [10, 28]: below the threshold
pKd [11, 28]: below the threshold
pKd [12, 28]: below the threshold
pKd [13, 28]: below the threshold
pKd [14, 28]: 3.99
pKd [15, 28]: 4.56
pKd [16, 28]: 3.6
pKd [17, 28]: 4.27
pKd [18, 28]: 3.98
pKd [19, 28]: 3.96
pKd [20, 28]: below the threshold
pKd [21, 28]: 3.49
pKd [22, 28]: below the threshold
pKd [23, 28]: 4.2
pKd [24, 28]: 3.64
pKd [25, 28]: below the threshold
pKd [26, 28]: below the threshold
pKd [27, 28]: below the threshold
Binder: YNSFLSVTTV [PDZRN3, Q9UPQ7]
